What was measured:
[1] = biological target: the molecule itself; experiment: SEC-MALS; SEC-RI-MALS; Superdex 200 5/150; samples at 60 to 600 µM; gel filtration buffer (20 mM Tris-HCl, 300 mM NaCl, 5 mM MgCl2, DTT); 0.3 mL/min; RI at 25 °C
[2] = biological target: the molecule itself; experiment: mass photometry; His-tagged NDPK-C directly after affinity purification

Protein	stoichiometry N [1]	stoichiometry N [2]
human nucleoside diphosphate kinase C, N-terminally truncated (residues Thr18–Glu169), untagged (enzyme, UniProt Q13232 18-169, looked up, human NDPK-C (nme3 gene product), residues Thr18-Glu169 of UniProt Q13232; The forward primer puts a start codon (Met) before Thr18; The results speak of a 156-residue subunit, while Thr18-Glu169 is 152 residues; The extra residues are probably what TEV cleavage leaves of the tag plus the Met; also called NDPK-C; NDPK isoform C; source: E. coli BL21 (DE3), purified (HisTrap, SEC, TEV cleavage, …)) TGAHERTFLAVKPDGVQRRLVGEIVRRFERKGFKLVALKLVQASEELLREHYAELRERPFYGRLVKYMASGPVVAMVWQGLDVVRTSRALIGATNPADAPPGTIRGDFCIEVGKNLIHGSDSVESARREIALWFRADELLCWEDSAGHWLYE	6	
His-tagged human NDPK-C (residues Thr18–Glu169) (enzyme, UniProt Q13232 18-169, looked up, human NDPK-C (nme3 gene product), residues Thr18-Glu169 of UniProt Q13232; the expression plasmid encodes a 173 amino acid polypeptide including the N-terminal TEV-cleavable His-tag; 173 residues in all; also called His-NDPK-C; His-tagged NDPK-C; not shown: His6, N-terminal, kept) TGAHERTFLAVKPDGVQRRLVGEIVRRFERKGFKLVALKLVQASEELLREHYAELRERPFYGRLVKYMASGPVVAMVWQGLDVVRTSRALIGATNPADAPPGTIRGDFCIEVGKNLIHGSDSVESARREIALWFRADELLCWEDSAGHWLYE		6
